Results as given in the supplement of paper PMC9732359.
± gives the uncertainty stated by the source.

Test: protein stability index of a GFP-peptide fusion (yeast GPS) (PSI 1-4); higher = more stable; sorted into four equal gates, so the index is relative within each strain
Procedure, shortened: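 Each library plasmid carries Cherry plus GFP with a tiled 17-residue yeast protein peptide fused downstream, and the pooled library was carried in yeast. Mid-log cultures in leucine-free medium were sorted into four equal gates by GFP/Cherry ratio. Reads from Illumina sequencing of PCR-amplified plasmids from each gate were assigned to strains by barcodes. Per peptide, the protein stability index was computed as the summed products of gate read frequency and gate number.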

Sequence	protein stability index (doa10∆)	protein stability index (pdr5∆)	protein stability index (san1∆)	protein stability index (ubr1∆)
PTESYLQYIIHDTLNNE [BRR2]	2.22 ± 0.058	2.43 ± 0.07	2.37 ± 0.097	2.26 ± 0.065
ETPKSNNSLSYHSGRLL [ITC1]	3.22 ± 0.14	3.06 ± 0.12	2.63 ± 0.13	3.32 ± 0.078
IEAASTTQDQCKLTLDI [RPB8]	2.92 ± 0.06	3.12 ± 0.077	2.81 ± 0.042	3.07 ± 0.078
VACLFITISIHGKPTKG [SSN8]	1.19 ± 0.061	1.24 ± 0.061	1.28 ± 0.16	1.5 ± 0.11
GCEANIHSLVKQRLDLA [YIL149C/MLP2]	3.06 ± 0.12	3.19 ± 0.11	3.05 ± 0.062	3.19 ± 0.076
GGLGLNLQTADTVIIFD [SNF2]	3.18 ± 0.12	3.22 ± 0.1	3.34 ± 0.13	3.38 ± 0.07
DKQGWTPLFHALAEGHG [NAS6]	2.75 ± 0.2	2.34 ± 0.098	2.99 ± 0.13	3.01 ± 0.17
LLVDKDANGVSLFELIV [YJL039C/NUP192]	3.02 ± 0.051	3.05 ± 0.055	3.07 ± 0.049	3.25 ± 0.037
ALKNACNSIINKLGALK [RPB11]	2.89 ± 0.29		2.95 ± 0.11	3.17 ± 0.15
IFSYLQFTSSLFKALKV [RGR1]	1.61 ± 0.059	1.3 ± 0.052	1.12 ± 0.11	1.05 ± 0.056
NGQSLSPVRSDSADVPA [YMR153W/NUP53]	3.06 ± 0.081	3.15 ± 0.081	3.09 ± 0.11	2.91 ± 0.05
VTKETVHPRKSYKMNSS [PRP8]	3.03 ± 0.11	3.02 ± 0.086	2.96 ± 0.048	2.9 ± 0.065
RSMVRKWQTLIEANVTV [RPS1A]	1.65 ± 0.053	1.62 ± 0.044	1.67 ± 0.079	2.24 ± 0.041
ADNGEEYLTLNDFNDLN [MED2]	2.96 ± 0.23	3.3 ± 0.14	3.55 ± 0.12	3.27 ± 0.082
HVKVNDKKEMTIYNNIR [SIR3]	3.04 ± 0.052	2.91 ± 0.062	2.87 ± 0.04	3.228 ± 0.032
GTIDKLQLELTIEDIAV [RPO31]	2.41 ± 0.064	2.79 ± 0.057	2.3 ± 0.053	2.54 ± 0.046
PQFDSTQPKSSSSMDMQ [SSN3]	2.94 ± 0.069	3 ± 0.068	2.95 ± 0.05	3.02 ± 0.044
LAASEIGISIVGRFSTI [ECM29]	2.51 ± 0.091	2.95 ± 0.078	2.88 ± 0.073	2.3 ± 0.064
HWNLPGERIFNKIRNLE [SIR2]	3.3 ± 0.098	3.23 ± 0.097	3.2 ± 0.056	3.29 ± 0.068
